According to PMC9666304, “Quinone binding site in a type VI sulfide:quinone oxidoreductase” (Applied Microbiology and Biotechnology, 2022):

T1: TrSqrF; SqrF WT (Thiocapsa roseopersicina, UniProt A0A1Z2RRG1)
T1 sequence (A0A1Z2RRG1 1-375): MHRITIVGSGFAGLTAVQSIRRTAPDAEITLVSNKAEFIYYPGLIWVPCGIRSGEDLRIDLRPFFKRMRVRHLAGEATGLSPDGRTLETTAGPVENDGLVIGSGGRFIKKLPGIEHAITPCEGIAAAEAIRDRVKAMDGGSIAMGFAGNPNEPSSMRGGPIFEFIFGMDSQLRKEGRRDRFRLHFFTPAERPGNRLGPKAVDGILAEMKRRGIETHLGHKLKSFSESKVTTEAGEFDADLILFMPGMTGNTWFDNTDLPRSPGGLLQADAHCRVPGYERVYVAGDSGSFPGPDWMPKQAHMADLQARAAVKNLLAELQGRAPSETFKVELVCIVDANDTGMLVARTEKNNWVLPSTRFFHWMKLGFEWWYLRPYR


Legend:
TrSqrF; SqrF WT = target: T1, TrSqrF; SqrF WT; experiment: UV-visible absorption of purified protein; in-gel FAD fluorescence; type: binding; details: co-purified cofactor
purified protein [1] = substrate: CC1=C(C)C(=O)C(C)=C(C)C1=O; experiment: purified protein; type: biochemical, Thiocapsa roseopersicina; details: 200 µM sulfide, 50 mM Tris-HCl pH 8.0, 25 °C, anaerobic
purified protein [2] = substrate: CCCCCCCCCCC1=C(C)C(=O)C(OC)=C(OC)C1=O; experiment: purified protein; type: biochemical, Thiocapsa roseopersicina; details: 200 µM sulfide, 50 mM Tris-HCl pH 8.0, 25 °C, anaerobic

Molecule | UV-visible absorption of purified protein; in-gel FAD fluorescence (TrSqrF; SqrF WT) | Km (purified protein [1]) | kcat (purified protein [1]) | kcat/Km (purified protein [1]) | Km (purified protein [2]) | kcat (purified protein [2]) | kcat/Km (purified protein [2])
Cc1cc2nc3c(=O)[nH]c(=O)nc-3n(C[C@H](O)[C@H](O)[C@H](O)COP(=O)(O)OP(=O)(O)OC[C@H]3O[C@@H](n4cnc5c(N)ncnc54)[C@H](O)[C@@H]3O)c2cc1C [FAD, flavin adenine dinucleotide] | Absorption maxima at these wavelengths indicated that all TrSqrF variants contained the FAD cofactor |  |  |  |  |  | 
TrSqrF; SqrF WT (Thiocapsa roseopersicina) (protein) MHRITIVGSGFAGLTAVQSIRRTAPDAEITLVSNKAEFIYYPGLIWVPCGIRSGEDLRIDLRPFFKRMRVRHLAGEATGLSPDGRTLETTAGPVENDGLVIGSGGRFIKKLPGIEHAITPCEGIAAAEAIRDRVKAMDGGSIAMGFAGNPNEPSSMRGGPIFEFIFGMDSQLRKEGRRDRFRLHFFTPAERPGNRLGPKAVDGILAEMKRRGIETHLGHKLKSFSESKVTTEAGEFDADLILFMPGMTGNTWFDNTDLPRSPGGLLQADAHCRVPGYERVYVAGDSGSFPGPDWMPKQAHMADLQARAAVKNLLAELQGRAPSETFKVELVCIVDANDTGMLVARTEKNNWVLPSTRFFHWMKLGFEWWYLRPYR |  | 27.39 ± 2.47 µM | 1.25 ± 0.04 s⁻¹ | 46000 M⁻¹ s⁻¹ | 24.47 ± 6.42 µM | 8.37 ± 0.33 s⁻¹ | 342000 M⁻¹ s⁻¹
TrSqrF; SqrF WT (Thiocapsa roseopersicina; I333F) (protein) MHRITIVGSGFAGLTAVQSIRRTAPDAEITLVSNKAEFIYYPGLIWVPCGIRSGEDLRIDLRPFFKRMRVRHLAGEATGLSPDGRTLETTAGPVENDGLVIGSGGRFIKKLPGIEHAITPCEGIAAAEAIRDRVKAMDGGSIAMGFAGNPNEPSSMRGGPIFEFIFGMDSQLRKEGRRDRFRLHFFTPAERPGNRLGPKAVDGILAEMKRRGIETHLGHKLKSFSESKVTTEAGEFDADLILFMPGMTGNTWFDNTDLPRSPGGLLQADAHCRVPGYERVYVAGDSGSFPGPDWMPKQAHMADLQARAAVKNLLAELQGRAPSETFKVELVCFVDANDTGMLVARTEKNNWVLPSTRFFHWMKLGFEWWYLRPYR |  | 102.7 ± 69.9 µM | 0.72 ± 0.21 s⁻¹ | 7000 M⁻¹ s⁻¹ | 13.98 ± 7.20 µM | 1.2 ± 0.48 s⁻¹ | 86000 M⁻¹ s⁻¹
TrSqrF; SqrF WT (Thiocapsa roseopersicina; V331F) (protein) MHRITIVGSGFAGLTAVQSIRRTAPDAEITLVSNKAEFIYYPGLIWVPCGIRSGEDLRIDLRPFFKRMRVRHLAGEATGLSPDGRTLETTAGPVENDGLVIGSGGRFIKKLPGIEHAITPCEGIAAAEAIRDRVKAMDGGSIAMGFAGNPNEPSSMRGGPIFEFIFGMDSQLRKEGRRDRFRLHFFTPAERPGNRLGPKAVDGILAEMKRRGIETHLGHKLKSFSESKVTTEAGEFDADLILFMPGMTGNTWFDNTDLPRSPGGLLQADAHCRVPGYERVYVAGDSGSFPGPDWMPKQAHMADLQARAAVKNLLAELQGRAPSETFKVELFCIVDANDTGMLVARTEKNNWVLPSTRFFHWMKLGFEWWYLRPYR |  | 40.23 ± 7.36 µM | 0.72 ± 0.02 s⁻¹ | 18000 M⁻¹ s⁻¹ | 12.33 ± 0.86 µM | 3.64 ± 1.06 s⁻¹ | 295000 M⁻¹ s⁻¹
TrSqrF; SqrF WT (Thiocapsa roseopersicina; V331A) (protein) MHRITIVGSGFAGLTAVQSIRRTAPDAEITLVSNKAEFIYYPGLIWVPCGIRSGEDLRIDLRPFFKRMRVRHLAGEATGLSPDGRTLETTAGPVENDGLVIGSGGRFIKKLPGIEHAITPCEGIAAAEAIRDRVKAMDGGSIAMGFAGNPNEPSSMRGGPIFEFIFGMDSQLRKEGRRDRFRLHFFTPAERPGNRLGPKAVDGILAEMKRRGIETHLGHKLKSFSESKVTTEAGEFDADLILFMPGMTGNTWFDNTDLPRSPGGLLQADAHCRVPGYERVYVAGDSGSFPGPDWMPKQAHMADLQARAAVKNLLAELQGRAPSETFKVELACIVDANDTGMLVARTEKNNWVLPSTRFFHWMKLGFEWWYLRPYR |  |  |  |  | 18.99 ± 6.10 µM | 2.47 ± 0.33 s⁻¹ | 130000 M⁻¹ s⁻¹
TrSqrF; SqrF WT (Thiocapsa roseopersicina; F366A) (protein) MHRITIVGSGFAGLTAVQSIRRTAPDAEITLVSNKAEFIYYPGLIWVPCGIRSGEDLRIDLRPFFKRMRVRHLAGEATGLSPDGRTLETTAGPVENDGLVIGSGGRFIKKLPGIEHAITPCEGIAAAEAIRDRVKAMDGGSIAMGFAGNPNEPSSMRGGPIFEFIFGMDSQLRKEGRRDRFRLHFFTPAERPGNRLGPKAVDGILAEMKRRGIETHLGHKLKSFSESKVTTEAGEFDADLILFMPGMTGNTWFDNTDLPRSPGGLLQADAHCRVPGYERVYVAGDSGSFPGPDWMPKQAHMADLQARAAVKNLLAELQGRAPSETFKVELVCIVDANDTGMLVARTEKNNWVLPSTRFFHWMKLGAEWWYLRPYR |  | 46.19 ± 2.53 µM | 0.26 ± 0.01 s⁻¹ | 6000 M⁻¹ s⁻¹ | 9.38 ± 1.97 µM | 1.97 ± 0.28 s⁻¹ | 210000 M⁻¹ s⁻¹
TrSqrF; SqrF WT (Thiocapsa roseopersicina; F366Y) (protein) MHRITIVGSGFAGLTAVQSIRRTAPDAEITLVSNKAEFIYYPGLIWVPCGIRSGEDLRIDLRPFFKRMRVRHLAGEATGLSPDGRTLETTAGPVENDGLVIGSGGRFIKKLPGIEHAITPCEGIAAAEAIRDRVKAMDGGSIAMGFAGNPNEPSSMRGGPIFEFIFGMDSQLRKEGRRDRFRLHFFTPAERPGNRLGPKAVDGILAEMKRRGIETHLGHKLKSFSESKVTTEAGEFDADLILFMPGMTGNTWFDNTDLPRSPGGLLQADAHCRVPGYERVYVAGDSGSFPGPDWMPKQAHMADLQARAAVKNLLAELQGRAPSETFKVELVCIVDANDTGMLVARTEKNNWVLPSTRFFHWMKLGYEWWYLRPYR |  | 79.30 ± 14.68 µM | 0.57 ± 0.08 s⁻¹ | 7000 M⁻¹ s⁻¹ | 10.03 ± 1.39 µM | 3.17 ± 0.82 s⁻¹ | 316000 M⁻¹ s⁻¹
SqrF CTD (Thiocapsa roseopersicina) (protein, C-terminal alpha-helix deletion, stop codons after Thr356; N-terminal StrepII tag, expressed in T. roseopersicina FOQRON) MHRITIVGSGFAGLTAVQSIRRTAPDAEITLVSNKAEFIYYPGLIWVPCGIRSGEDLRIDLRPFFKRMRVRHLAGEATGLSPDGRTLETTAGPVENDGLVIGSGGRFIKKLPGIEHAITPCEGIAAAEAIRDRVKAMDGGSIAMGFAGNPNEPSSMRGGPIFEFIFGMDSQLRKEGRRDRFRLHFFTPAERPGNRLGPKAVDGILAEMKRRGIETHLGHKLKSFSESKVTTEAGEFDADLILFMPGMTGNTWFDNTDLPRSPGGLLQADAHCRVPGYERVYVAGDSGSFPGPDWMPKQAHMADLQARAAVKNLLAELQGRAPSETFKVELVCIVDANDTGMLVARTEKNNWVLPST |  | 70.71 ± 44.78 µM | 0.96 ± 0.24 s⁻¹ | 14000 M⁻¹ s⁻¹ | 18.99 ± 0.67 µM | 4.9 ± 0.8 s⁻¹ | 268000 M⁻¹ s⁻¹
